Measurements: paper doi:10.1101/2024.05.21.594841 (bioRxiv, 2024)

Columns and labels:
Test in all cases: split reporter
Sec20p = target: T1, Sec20p (S. cerevisiae, UniProt P28791 1-383)
T1 sequence: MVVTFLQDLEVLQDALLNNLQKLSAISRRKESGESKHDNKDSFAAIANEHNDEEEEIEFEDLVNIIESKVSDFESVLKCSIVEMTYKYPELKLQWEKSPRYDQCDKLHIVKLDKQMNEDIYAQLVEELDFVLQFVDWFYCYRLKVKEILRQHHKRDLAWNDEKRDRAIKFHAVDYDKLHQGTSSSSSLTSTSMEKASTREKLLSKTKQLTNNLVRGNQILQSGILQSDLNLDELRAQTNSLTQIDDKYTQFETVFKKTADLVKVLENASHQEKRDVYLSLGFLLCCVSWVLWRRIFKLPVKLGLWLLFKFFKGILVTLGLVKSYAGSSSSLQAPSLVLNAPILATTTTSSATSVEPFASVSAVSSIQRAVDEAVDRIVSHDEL

Mpd2p = target: T2, Mpd2p (S. cerevisiae, UniProt Q99316 23-277)
T2 sequence: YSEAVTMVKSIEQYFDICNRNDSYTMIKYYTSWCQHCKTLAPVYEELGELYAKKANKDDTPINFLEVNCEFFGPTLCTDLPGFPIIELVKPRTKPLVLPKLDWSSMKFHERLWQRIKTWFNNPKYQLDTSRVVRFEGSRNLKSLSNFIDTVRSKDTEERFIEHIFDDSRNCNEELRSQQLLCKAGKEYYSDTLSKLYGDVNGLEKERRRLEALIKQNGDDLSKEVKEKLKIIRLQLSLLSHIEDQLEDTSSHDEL

Qcr2p = target: T3, Qcr2p (S. cerevisiae, UniProt P07257 17-368)
T3 sequence: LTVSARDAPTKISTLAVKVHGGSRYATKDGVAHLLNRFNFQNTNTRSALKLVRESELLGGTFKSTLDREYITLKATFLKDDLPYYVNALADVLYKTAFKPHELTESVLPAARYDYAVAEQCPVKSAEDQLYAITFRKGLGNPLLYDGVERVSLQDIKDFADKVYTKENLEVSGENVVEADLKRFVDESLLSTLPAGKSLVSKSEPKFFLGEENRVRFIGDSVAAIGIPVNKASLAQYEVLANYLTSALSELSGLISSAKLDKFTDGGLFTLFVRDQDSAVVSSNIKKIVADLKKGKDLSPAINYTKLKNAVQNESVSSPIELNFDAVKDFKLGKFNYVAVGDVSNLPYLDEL

Yos9p = target: T4, Yos9p (S. cerevisiae, UniProt Q99220 22-542)
T4 sequence: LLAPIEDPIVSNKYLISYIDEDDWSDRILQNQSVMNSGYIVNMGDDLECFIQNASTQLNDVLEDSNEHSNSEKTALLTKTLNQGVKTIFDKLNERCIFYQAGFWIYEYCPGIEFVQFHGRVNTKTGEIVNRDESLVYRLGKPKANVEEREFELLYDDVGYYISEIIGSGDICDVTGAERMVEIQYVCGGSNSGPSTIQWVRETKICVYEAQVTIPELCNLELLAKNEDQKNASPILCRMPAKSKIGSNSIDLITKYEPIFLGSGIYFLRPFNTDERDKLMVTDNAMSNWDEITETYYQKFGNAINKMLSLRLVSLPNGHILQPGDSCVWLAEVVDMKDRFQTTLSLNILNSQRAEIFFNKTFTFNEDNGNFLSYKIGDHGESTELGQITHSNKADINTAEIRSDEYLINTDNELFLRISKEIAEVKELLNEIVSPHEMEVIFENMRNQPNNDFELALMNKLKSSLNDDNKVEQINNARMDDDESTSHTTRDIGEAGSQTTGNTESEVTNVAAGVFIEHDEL

Sil1p = target: T5, Sil1p (S. cerevisiae, UniProt Q08199 20-421)
T5 sequence: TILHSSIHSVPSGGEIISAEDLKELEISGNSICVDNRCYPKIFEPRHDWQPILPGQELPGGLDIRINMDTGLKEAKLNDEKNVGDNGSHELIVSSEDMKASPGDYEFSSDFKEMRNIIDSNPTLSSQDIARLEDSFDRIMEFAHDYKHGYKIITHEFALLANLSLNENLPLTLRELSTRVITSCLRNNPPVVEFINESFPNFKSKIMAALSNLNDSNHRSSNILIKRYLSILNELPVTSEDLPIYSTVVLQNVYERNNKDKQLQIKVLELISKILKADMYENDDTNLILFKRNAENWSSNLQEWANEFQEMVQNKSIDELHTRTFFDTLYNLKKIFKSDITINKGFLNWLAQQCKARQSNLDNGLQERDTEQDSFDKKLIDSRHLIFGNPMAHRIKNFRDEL

- normalized interacting score (Sec20p): 20%
- normalized interacting score (Mpd2p): > 40%
- normalized interacting score (Qcr2p): 22%
- normalized interacting score (Yos9p): > 40%
- normalized interacting score (Sil1p): 93%
B1: Lhs1p (natural protein)
chain: AVLGVDYGQQNIKAIVVSPQAPLELVLTPEAKRKEISGLSIKRLPGYGKDDPNGIERIYGSAVGSLATRFPQNTLLHLKPLLGKSLEDETTVTLYSKQHPGLEMVSTNRSTIAFLVDNVEYPLEELVAMNVQEIANRANSLLKDRDARTEDFVNKMSFTIPDFFDQHQRKALLDASSITTGIEETYLVSEGMSVAVNFVLKQRQFPPGEQQHYIVYDMGSGSIKASMFSILQPEDTTQPVTIEFEGYGYNPHLGGAKFTMDIGSLIENKFLETHPAIRTDELHANPKALAKINQAAEKAKLILSANSEASINIESLINDIDFRTSITRQEFEEFIADSLLDIVKPINDAVTKQFGGYGTNLPEINGVILAGGSSRIPIVQDQLIKLVSEEKVLRNVNADESAVNGVVMRGIKLSNSFKTKPLNVVDRSVNTYSFKLSNESELYDVFTRGSAYPNKTSILTNTTDSIPNNFTIDLFENGKLFETITVNSGAIKNSYSSDKCSSGVAYNITFDLSSDRLFSIQEVNCICQSENDIGNSKQIKNKGSRLAFTSEDVEIKRLSPSERSRLHEHIKLLDKQDKERFQFQENLNVLESNLYDARNLLMDDEVMQNGPKSQVEELSEMVKVYLDWLEDASFDTDPEDIVSRIREIGILKKKIELYMDSAKEPLNSQQFKGMLEEGHKLLQAIETHKNTVEEFLSQFETEFADTIDNVREEFKKIKQPAYVSKALSTWEETLTSFKNSISEIEKFLAKNLFGEDLREHLFEIKLQFDMYRTKLEEKLRLIKSGDESRLNEIKKLHLRNFRLQKRKEEKLKRKLEQEKSRNNNETESTVINSADDKTTIVNDKTTESNPSSEEDILHDEL
